# From patent US20100239676A1, “Stable Aerosolizable Suspensions of Proteins in Ethanol” (priority 2000, published 2010)
# Assay: Stabilization of insulin suspension in 100% ethanol, activity retained by reversed phase HPLC
# Assay type: physicochemical
# Settings: pH 7.4
# Experimental: The conical tubes were then sealed with punctured parafilm, and frozen overnight at ˜−15° C. to −20° C. […] This process was started two or three days prior to the start of the experiment. […] For each sample, there were four (4) time-points prepared. […] The diluted samples were then analyzed by reversed phase HPLC method using standard techniques known to the art. The other time-points were sealed with parafilm. Four (4) different conditions were tested: (i) & (ii) samples were maintained at 37° C. with and without shaking; (iii) samples were maintained at 40° C. with shaking; and (iv) samples were maintained at room temperature with no shaking. A Labline environmental incubator/shaker was used at 37° C. and at 40° C. while shaking at 220 rpm. […] Inversion was used to gently mix.
# Percent activity retained was determined by high-performance liquid chromatography (HPLC).
substance,measurement,setting,value
"Insulin: Lyophilized human insulin, supplied from Roche Biochemical Co., suspended in 200 proof ethanol",Activity Retained (%),"2.0 months, 20 °C, shaking NA",90%
same,Activity Retained (%),"2.0 months, 40 °C, shaking 220 rpm",55%
same,Activity Retained (%),"2.5 months, 37 °C, shaking NA",93%
